Experimental data as given in article PMC5780489 (2018).

What was measured:
[1] = biological target: T1, PABPC1 RRM1/2/3/4 (residues 1-370) (human, UniProt P11940 1-370); experiment: NMR; RRM1/2/3/4 bound to A24 RNA; T438 signal
[2] = biological target: T1, PABPC1 RRM1/2/3/4 (residues 1-370); experiment: NMR; RRM1/2/3/4 bound to A24 RNA; W437 signal

T1 sequence (P11940 1-370): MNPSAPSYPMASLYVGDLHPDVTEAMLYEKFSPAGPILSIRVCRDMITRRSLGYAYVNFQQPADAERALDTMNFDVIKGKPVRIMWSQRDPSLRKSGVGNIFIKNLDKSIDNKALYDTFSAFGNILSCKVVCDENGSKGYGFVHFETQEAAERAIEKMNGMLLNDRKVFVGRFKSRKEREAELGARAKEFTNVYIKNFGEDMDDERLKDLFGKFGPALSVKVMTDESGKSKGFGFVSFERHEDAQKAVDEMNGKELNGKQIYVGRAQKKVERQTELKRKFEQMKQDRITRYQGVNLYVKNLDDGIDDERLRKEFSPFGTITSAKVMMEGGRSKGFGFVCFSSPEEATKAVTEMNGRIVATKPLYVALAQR

B1: PABPC1 linker fragment Lt2 (residues 421-470) (peptide)
chain: AYYPPSQIAQLRPSPRWTAQGARPHPFQNMPGAIRPAAPRPPFSTMRPAS
Kd [1]: 24 µM | Kd [2]: 12 µM
